Values belong to the binder of their own block, whether it stands above or below them.
Assays:
human IL-17A [1] = molecular target: T1, human IL-17A (human, UniProt Q16552 24-155, biotinylated with Sulfo-NHS-LC-Biotin in the AlphaScreen assays only); experiment: cell-based or functional assay
human IL-17A [2] = molecular target: T1, human IL-17A; experiment: AlphaScreen competition, hIL-17A - IL-17RA-Fc;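 also: receptor Fc-fusion plus Acceptor and streptavidin Donor beads incubated with the mixture for 1 h at room temperature before reading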
Protocol: (§1) To this mixture, the IL-17RA or IL-17RC Fc-fusions, Acceptor beads and the streptavidin Donor beads were added and further incubated for 1 hour at RT.

human IL-17A [3] = molecular target: T1, human IL-17A; experiment: AlphaScreen competition, hIL-17A - IL-17RC-Fc;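 also: Read-out after 1 h at room temperature with the receptor Fc-fusion, Acceptor beads and streptavidin-coated Donor beads present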
Protocol: as §1

human IL-17A [4] = molecular target: T1, human IL-17A; experiment: SPR Biacore, hIL-17A on chip; purified protein
[5] = molecular target: T2, human IL-17A/F heterodimer (human, UniProt Q16552 24-155; Q96PD4 31-163, limits assumed, biotinylated with Sulfo-NHS-LC-Biotin in the AlphaScreen assays only); experiment: cell-based or functional assay
T2 sequence (Q16552 24-155 limits assumed, chain 1 of 2, one chain of several): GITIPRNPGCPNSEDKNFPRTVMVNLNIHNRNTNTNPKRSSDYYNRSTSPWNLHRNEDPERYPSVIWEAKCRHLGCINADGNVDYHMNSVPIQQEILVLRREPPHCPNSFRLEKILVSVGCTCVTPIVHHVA

[6] = molecular target: T2, human IL-17A/F heterodimer; experiment: AlphaScreen competition, hIL-17A/F - IL-17RA-Fc
Protocol: as §1

[7] = molecular target: T2, human IL-17A/F heterodimer; experiment: AlphaScreen competition, hIL-17A/F - IL-17RC-Fc
Protocol: as §1

[8] = molecular target: T2, human IL-17A/F heterodimer; experiment: SPR Biacore, hIL-17A/F on chip; purified protein
human IL-17F = molecular target: T3, human IL-17F (human, UniProt Q96PD4 31-163, biotinylated with Sulfo-NHS-LC-Biotin in the AlphaScreen assays only); experiment: SPR Biacore, hIL-17F on chip; periplasmic extract (*); NB = no binding
T3 construct: also called hIL-17F; recombinant human IL-17F
T3 sequence: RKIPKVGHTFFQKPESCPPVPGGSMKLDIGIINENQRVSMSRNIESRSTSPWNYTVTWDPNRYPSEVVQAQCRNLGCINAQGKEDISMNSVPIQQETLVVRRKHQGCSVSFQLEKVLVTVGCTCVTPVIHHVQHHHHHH
Protocol: Off-rates of the periplasmic extracts containing anti-IL-17 Nanobodies were measured by Surface Plasmon Resonance (SPR) using a Biacore T100 instrument. […] Periplasmic extracts containing IL-17 neutralizing Nanobodies were injected for 2 minutes at a flow rate of 45 μl/min to allow binding to chip-bound antigen. Next, binding buffer without periplasmic extracts was sent over the chip at the same flow rate to allow spontaneous dissociation of bound Nanobody. From the sensorgrams obtained for the different periplasmic extracts koff-values (k₄) were calculated.

guinea pig IL-17A = guinea pig IL-17A (guinea pig); experiment: ELISA, coated IL-17A
Protocol: (§2) Binding of a selected panel of anti-IL-17 Nanobodies to IL-17 of other species was assessed using a binding ELISA. […] HRP (horseradish peroxidase) conjugated anti-myc (Serotec, MCA 2200P) was used for detection using esTMB as substrate.

mouse IL-17F = molecular target: T4, mouse IL-17F (mouse, UniProt Q7TNI7 29-161); experiment: ELISA, coated IL-17F;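 also: binding ELISA on coated antigen from various species, with bound Nanobodies revealed by an HRP-linked anti-myc antibody and esTMB substrate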
T4 sequence (looked up): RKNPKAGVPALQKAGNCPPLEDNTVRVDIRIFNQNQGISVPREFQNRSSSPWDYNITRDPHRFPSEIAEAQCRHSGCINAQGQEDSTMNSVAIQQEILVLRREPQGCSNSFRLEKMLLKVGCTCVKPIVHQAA
Protocol: as §2

rat IL-17F = molecular target: T5, rat IL-17F (rat, UniProt Q5BJ95 29-161); experiment: ELISA, coated IL-17F;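 also: binding ELISA on coated antigen from various species, with bound Nanobodies revealed by an HRP-linked anti-myc antibody and esTMB substrate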
T5 sequence (looked up): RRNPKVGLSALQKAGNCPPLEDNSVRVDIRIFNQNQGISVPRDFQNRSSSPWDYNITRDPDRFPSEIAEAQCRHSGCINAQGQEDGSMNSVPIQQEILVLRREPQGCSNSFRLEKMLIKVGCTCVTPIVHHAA
Protocol: as §2

T1 sequence (Q16552 other isoform, or with tags, fused parts or gaps): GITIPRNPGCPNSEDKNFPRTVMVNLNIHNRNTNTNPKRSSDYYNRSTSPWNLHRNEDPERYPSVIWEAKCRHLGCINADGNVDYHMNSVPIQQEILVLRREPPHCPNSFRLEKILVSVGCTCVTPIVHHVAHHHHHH

B2: 09G10 (VHH)
VHH: EVQLVESGGGLVQAGGSLRLSCAASDSVFTAKAVGWYRQPPGLQREWVAIITSGGKTNYADSSVKGRFTVSVDKVKNTVTLQMNSLKPEDTAVYYCYAQWMGRDYWGQGTQVTVSS
notes: Class 2 Nanobody (anti-IL-17A and IL-17A/F); not shown: c-myc, His6 tag
IL-17A-induced IL-6 production in HT-1080 cells, Emax (human IL-17A [1]): 99%
IL-17A-induced IL-6 production in HT-1080 cells, IC50 (human IL-17A [1]): 4 nM
IL-17A/F-induced IL-6 production in HT-1080 cells, Emax [5]: 108%
IL-17A/F-induced IL-6 production in HT-1080 cells, IC50 [5]: 22.2 nM
IC50 (human IL-17A [2]): 0.046 nM
IC50 (human IL-17A [3]): 0.323 nM
koff (human IL-17A [4]): 0.00012 s⁻¹
IC50 [6]: 0.101 nM
IC50 [7]: 0.12 nM
koff [8]: 0.00013 s⁻¹
binding result (human IL-17F): no binding

B6: 03C07 (VHH)
VHH: EVQLVESGGGLVQAGGSLRLSCAASGFTFDDYAIGWFRQAPGKEREAVSCFSSSDGSIYYADSVKGRFTISSDNAKNTVYLQMNSLKPEDTAVYYCAGGGGSYYYTQLNYCYDMDYWGKGTQVTVSS
notes: as for B2
IL-17A-induced IL-6 production in HT-1080 cells, Emax (human IL-17A [1]): 101%
IL-17A-induced IL-6 production in HT-1080 cells, IC50 (human IL-17A [1]): 4.2 nM
IC50 (human IL-17A [2]): 0.084 nM
IC50 (human IL-17A [3]): 0.371 nM
koff (human IL-17A [4]): 0.0002 s⁻¹

B7: 04G01 (VHH)
VHH: EVQLVESGGGLVQAGGSQRLSCTASGTIVNIHVMGWYRQAPGKQRELVALIFSGGSADYADSVKGRFTISRDNAKNTVYLEMNSLKAEDTAVYYCAAEIGYYSGGTYYSSEAHWGQGTQVTVSS
notes: Class 2 Nanobody (anti-IL-17A and IL-17A/F); also called IL17MS04G01; not shown: c-myc, His6 tag
IL-17A-induced IL-6 production in HT-1080 cells, Emax (human IL-17A [1]): 113%
IL-17A-induced IL-6 production in HT-1080 cells, IC50 (human IL-17A [1]): 5.4 nM
IL-17A/F-induced IL-6 production in HT-1080 cells, Emax [5]: 104%
IL-17A/F-induced IL-6 production in HT-1080 cells, IC50 [5]: 34.7 nM
IC50 (human IL-17A [2]): 0.014 nM
IC50 (human IL-17A [3]): 0.217 nM
koff (human IL-17A [4]): 0.00018 s⁻¹
IC50 [6]: 0.067 nM
IC50 [7]: 0.039 nM
koff [8]: 0.00023 s⁻¹
binding result (human IL-17F): no binding

B8: 02A08 (VHH)
VHH: EVQLVESGGGVVQPGGSLRLSCADSERSFSFNAMGWFRQAPGKEREFVAAISATGDDTYYADSVKGRFAISRDTARNTVYLQMNSLKPEDTAVYYCGARVNFDGTVSYTNDYAYWGQGTQVTVSS
notes: as for B2
IL-17A-induced IL-6 production in HT-1080 cells, Emax (human IL-17A [1]): 103%
IL-17A-induced IL-6 production in HT-1080 cells, IC50 (human IL-17A [1]): 8.8 nM
IC50 (human IL-17A [2]): 0.126 nM
IC50 (human IL-17A [3]): 0.419 nM
koff (human IL-17A [4]): 0.00042 s⁻¹

The next lines start with the values.

IL-17A-induced IL-6 production in HT-1080 cells, Emax (human IL-17A [1]): 104%
IL-17A-induced IL-6 production in HT-1080 cells, IC50 (human IL-17A [1]): 2.7 nM
IC50 (human IL-17A [2]): 0.051 nM
IC50 (human IL-17A [3]): 0.211 nM
koff (human IL-17A [4]): 8.5e-05 s⁻¹
B1: 01A01 (VHH)
VHH: EVQLVESGGGLVQAGGSLRLSCAASGFTFDDYDIGWFRQAPGKEREGVSCFTSSDGRTFYADSVKGRFTVSADNAKNTVYLQMNSLEPEDTAVYFCAAVNTFDESAYAAFACYDVVRWGQGTQVTVSS
notes: Class 4 Nanobody (cross-reactive: anti-IL-17A, IL-17F and IL-17A/F); not shown: c-myc, His6 tag

IL-17A-induced IL-6 production in HT-1080 cells, Emax (human IL-17A [1]): 101%
IL-17A-induced IL-6 production in HT-1080 cells, IC50 (human IL-17A [1]): 12.3 nM
IC50 (human IL-17A [2]): 0.159 nM
IC50 (human IL-17A [3]): 1.09 nM
koff (human IL-17A [4]): 0.0016 s⁻¹
B3: 13E05 (VHH)
VHH: EVQLVESGGGKVQAGDSLTLSCVASGGTFSNYAAWFRQAPGKDRRELVVSIFRTGSITYTADSVKGRFTASRVNTKNTVYLQMNSLKPEDTAVYYCASAYNPGVGYDYWGQGTQVTVSS
notes: as for B1

binding result (human IL-17F): no binding
B4: 04B09 (VHH)
VHH: EVQLVESGGGLVQPGGSLRLSCAASGFTLGYYAIGWFRQAPGKEREGVSCDSSSDGDTYYANSVKGRFTISTDNGKNTVYLQMNSLKPEDTAVYYCATCTDWNYDYWGQGTQVTVSS
notes: as for B2

OD (guinea pig IL-17A): 0.006 OD
OD (mouse IL-17F): 0.0215 OD
OD (rat IL-17F): 0.0085 OD
B5: 06E11 (VHH)
VHH: EVQLVESGGGLVQAGGSLRLSCPVSGRAFSRGRLGWFRQAPGKEREFVAVAHWSGAITSYADSVKGRFTFSRDNAKNTMNLQMNSLKPEDTAVYYCAADSETSGNWVYWGQGTQVTVSS
notes: Class 3

Reference: patent publication US20210130452A1 (Merck KGaA, published 2021)
